Results: patent US20030143692A1, “Methods and compositions for modulating integrin-mediated cell-cell interactions” (priority 2000, published 2003)

What was measured:
[1] = test system: ADAM 23 mediated adhesion of NB100 neuroblastoma cells; test: Inhibition of ADAM 23 mediated adhesion of NB100 cells; type: cell-based, human; conditions: NB100 cells incubated with peptide (20 or 40 μg/ml) prior to seeding
Description: Cell adhesion assays were performed in accordance with procedures described by Luque et al. (FEBS Lett 1994 346:278-284). In these assays, 96-well immunoplates (MaxiSorp, Nunc, Denmark) were coated with 0.1 ml of PBS containing different amounts of BSA, glutathione S-transferase (GST), and ADAM 23/GST. After incubating 16 hours at 4° C., wells were blocked with DMEM containing 2.5% BSA, for 2 hours at 37° C. Then, NB100 neuroblastoma cells (approximately 50,000 cells per well) were added in Dulbecco's modified Eagle's medium (DMEM) supplemented with 1% BSA and incubated at 37° C. for 2 hours. For experiments directed to analyze the effect of divalent cations, the cells were washed three times in PBS, and resuspended in the same buffer supplemented either with 1 mM MgCl2, 50 μM MnCl2, 1 mM CaCl2, or 1 mM MgCl2 plus 5 mM EDTA. Non-bound cells were removed by rinsing the wells with serum-free medium, whereas bound cells were fixed with methanol and stained with Giemsa. Cells were counted per unit area with the aid of an inverted light microscope, using a 20× high powered objective and an ocular grid. […] In all cases, experimental treatments were performed in triplicate with a minimum of three areas counted per well.

endothelial cells = test: Murine MATRIGEL plug angiogenesis model; type: in vivo, female athymic (BALB/c nu/nu) mice
Description: The angiogenic activity of ADAM 23 was evaluated in the murine MATRIGEL plug angiogenesis model. On day 0, ice-cold MATRIGEL (Becton-Dickinson, Bedford, Mass.) containing either vascular endothelial growth factor (VEGF, Pepro Tech, Inc., Rocky Hill, N.J.), basic fibroblast growth factor (bFGF, Pepro Tech, Inc., Rocky Hill, N.J.), […], saline buffer (PBS) or recombinant ADAM 23 disintegrin domain (dd) expressed as a GST fusion protein (GST-ADAM23dd) was implanted subcutaneously in female athymic (BALB/c nu/nu; Harlan, Indianapolis, Ind.) mice. The MATRIGEL polymerized immediately after implantation into mice forming a gel plug. On day 7, individual MATRIGEL plugs were harvested, fixed in 10% buffered formalin, embedded in paraffin, sectioned, and stained with hematoxylin-eosin. The number of endothelial cells present in each plug section was measured using a video imaging system (Image Pro-Plus, Empire Imaging, Princeton, N.J.). Fifty fields (at 20×) per plug section were randomly counted. Data are presented as “Average Number of Migrating Cells” and the p-value was determined using a two-tailed Student T-Test.

[2] = test system: NB100 human neuroblastoma cells; test: Cell adhesion assay on coated wells, NB100 cells; type: cell-based; conditions: for cell adhesion to wells coated with the protein: bound cells stained and quantified
Description: Cell adhesion assays were performed in accordance with procedures described by Luque et al. (FEBS Lett 1994 346:278-284). In these assays, 96-well immunoplates (MaxiSorp, Nunc, Denmark) were coated with 0.1 ml of PBS containing different amounts of BSA, glutathione S-transferase (GST), and ADAM 23/GST. After incubating 16 hours at 4° C., wells were blocked with DMEM containing 2.5% BSA, for 2 hours at 37° C. Then, NB100 neuroblastoma cells (approximately 50,000 cells per well) were added in Dulbecco's modified Eagle's medium (DMEM) supplemented with 1% BSA and incubated at 37° C. for 2 hours. For experiments directed to analyze the effect of divalent cations, the cells were washed three times in PBS, and resuspended in the same buffer supplemented either with 1 mM MgCl2, 50 μM MnCl2, 1 mM CaCl2, or 1 mM MgCl2 plus 5 mM EDTA. Non-bound cells were removed by rinsing the wells with serum-free medium, whereas bound cells were fixed with methanol and stained with Giemsa. Cells were counted per unit area with the aid of an inverted light microscope, using a 20× high powered objective and an ocular grid. For inhibition studies cells were pretreated for 30 minutes before the addition to the coated wells of mAb LM 609 (used at 1:400 dilution of ascites) or synthetic peptides (20 or 40 μg/ml) corresponding to the disintegrin loop of ADAM 23 (AVNEDCDIT, peptide 330 (SEQ ID NO:1)) or a “scrambled” peptide (DCVTNIAE, peptide 331 (SEQ ID NO:4)). In all cases, experimental treatments were performed in triplicate with a minimum of three areas counted per well.

HT1080 = test: Cell adhesion assay on coated wells, HT1080 cells; type: cell-based
αvβ3 integrin = target: T1, αvβ3 integrin (Homo sapiens, UniProt P05106+P06756); test: Sepharose bead binding of purified integrin (SDS-PAGE / Western blot); conditions: confirmed by Western blot
T1 construct: purchased Chemicon International Inc., Temecula, Calif
Description: (§1) Purified integrins ([…] αvβ3, α1β1 or α5β1) (Chemicon International Inc., Temecula, Calif.) were incubated with Sepharose 4B beads containing 0.5 μg of disintegrin-GST, in a buffer containing 50 mM Tris-HCl, 200 mM NaCl and 0.2 mM MnCl2 (pH 7.4), for 4 hours at 37° C. After incubation, beads were washed six times with 200 μl of the same buffer to remove unbound protein. Beads were then resuspended in Laemmli buffer and after boiling, solubilized proteins were loaded in a 6% SDS-PAGE gel, and visualized by silver staining. Alternatively, samples were blotted to a nitrocellulose membrane and the presence of αv or β3 integrin subunits was detected using polyclonal antibodies raised against these subunits. Similarly, the putative presence of β1 integrin subunits was examined with the B3B11 monoclonal antibody (Chemicon International Inc.). Western-blots were visualized by enhanced chemiluminescence according to the manufacturer s instructions (ECL, Amersham).

α1β1 = target: T2, α1β1 (Homo sapiens, UniProt P05556+P56199); test: as above
T2 construct: purchased Chemicon International Inc., Temecula, Calif
Description: as §1

α5β1 = target: T3, α5β1 (Homo sapiens, UniProt P05556+P08648); test: as above
T3 construct: purchased Chemicon International Inc., Temecula, Calif
Description: as §1

T47D = test: Cell adhesion assay on coated wells, T47D cells; type: cell-based
HeLa = test: Cell adhesion assay on coated wells, HeLa cells; type: cell-based

T2 sequence (P56199 29-1179): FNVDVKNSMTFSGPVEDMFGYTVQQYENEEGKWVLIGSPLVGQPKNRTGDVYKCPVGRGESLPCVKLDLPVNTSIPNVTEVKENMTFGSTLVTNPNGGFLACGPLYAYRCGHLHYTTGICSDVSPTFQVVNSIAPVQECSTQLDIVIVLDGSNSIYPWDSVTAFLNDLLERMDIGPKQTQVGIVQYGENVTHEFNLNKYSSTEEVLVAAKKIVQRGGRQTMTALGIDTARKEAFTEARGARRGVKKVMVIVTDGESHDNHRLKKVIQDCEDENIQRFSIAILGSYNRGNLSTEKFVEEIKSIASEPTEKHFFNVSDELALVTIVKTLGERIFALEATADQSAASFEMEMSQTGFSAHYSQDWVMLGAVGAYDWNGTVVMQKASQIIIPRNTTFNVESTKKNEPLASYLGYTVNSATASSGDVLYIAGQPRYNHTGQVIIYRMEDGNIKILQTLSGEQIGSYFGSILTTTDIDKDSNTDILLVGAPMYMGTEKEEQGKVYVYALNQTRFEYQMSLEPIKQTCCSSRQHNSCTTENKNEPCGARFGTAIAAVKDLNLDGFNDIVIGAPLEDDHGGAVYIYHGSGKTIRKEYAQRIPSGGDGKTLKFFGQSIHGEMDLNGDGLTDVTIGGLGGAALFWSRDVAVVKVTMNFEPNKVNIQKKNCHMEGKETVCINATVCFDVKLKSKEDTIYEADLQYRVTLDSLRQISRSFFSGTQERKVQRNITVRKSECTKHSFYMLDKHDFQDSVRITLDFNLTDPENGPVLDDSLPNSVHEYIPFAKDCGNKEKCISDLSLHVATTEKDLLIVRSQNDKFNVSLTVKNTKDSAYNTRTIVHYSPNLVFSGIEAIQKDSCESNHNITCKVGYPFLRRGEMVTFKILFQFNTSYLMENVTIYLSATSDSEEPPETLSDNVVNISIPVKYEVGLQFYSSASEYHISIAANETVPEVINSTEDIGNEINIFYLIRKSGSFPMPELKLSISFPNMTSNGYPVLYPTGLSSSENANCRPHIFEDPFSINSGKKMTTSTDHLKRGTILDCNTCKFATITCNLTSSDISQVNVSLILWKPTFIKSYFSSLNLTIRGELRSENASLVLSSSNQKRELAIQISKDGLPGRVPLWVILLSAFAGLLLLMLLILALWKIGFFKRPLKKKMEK
T2 sequence (P05556 21-798): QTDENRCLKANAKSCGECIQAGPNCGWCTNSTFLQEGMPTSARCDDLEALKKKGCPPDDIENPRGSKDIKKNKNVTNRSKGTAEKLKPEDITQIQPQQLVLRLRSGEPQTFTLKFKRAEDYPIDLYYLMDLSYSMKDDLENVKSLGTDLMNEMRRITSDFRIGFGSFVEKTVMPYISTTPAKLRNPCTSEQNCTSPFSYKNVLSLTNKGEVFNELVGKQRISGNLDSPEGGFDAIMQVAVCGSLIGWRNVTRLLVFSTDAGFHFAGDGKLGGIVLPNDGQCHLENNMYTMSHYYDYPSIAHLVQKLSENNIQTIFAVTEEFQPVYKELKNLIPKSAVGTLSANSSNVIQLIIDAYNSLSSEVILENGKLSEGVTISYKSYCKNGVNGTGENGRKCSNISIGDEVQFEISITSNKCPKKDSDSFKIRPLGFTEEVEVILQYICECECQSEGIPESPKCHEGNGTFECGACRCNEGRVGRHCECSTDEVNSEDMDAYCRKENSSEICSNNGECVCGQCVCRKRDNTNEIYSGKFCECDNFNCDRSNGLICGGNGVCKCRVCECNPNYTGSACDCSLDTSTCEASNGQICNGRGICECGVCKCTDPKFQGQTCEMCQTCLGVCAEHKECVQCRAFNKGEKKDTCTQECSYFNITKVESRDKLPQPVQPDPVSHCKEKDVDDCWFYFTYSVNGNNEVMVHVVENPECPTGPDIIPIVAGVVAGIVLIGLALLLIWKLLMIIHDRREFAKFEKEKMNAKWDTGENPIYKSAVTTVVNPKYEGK
T3 sequence (P08648 42-894 limits assumed): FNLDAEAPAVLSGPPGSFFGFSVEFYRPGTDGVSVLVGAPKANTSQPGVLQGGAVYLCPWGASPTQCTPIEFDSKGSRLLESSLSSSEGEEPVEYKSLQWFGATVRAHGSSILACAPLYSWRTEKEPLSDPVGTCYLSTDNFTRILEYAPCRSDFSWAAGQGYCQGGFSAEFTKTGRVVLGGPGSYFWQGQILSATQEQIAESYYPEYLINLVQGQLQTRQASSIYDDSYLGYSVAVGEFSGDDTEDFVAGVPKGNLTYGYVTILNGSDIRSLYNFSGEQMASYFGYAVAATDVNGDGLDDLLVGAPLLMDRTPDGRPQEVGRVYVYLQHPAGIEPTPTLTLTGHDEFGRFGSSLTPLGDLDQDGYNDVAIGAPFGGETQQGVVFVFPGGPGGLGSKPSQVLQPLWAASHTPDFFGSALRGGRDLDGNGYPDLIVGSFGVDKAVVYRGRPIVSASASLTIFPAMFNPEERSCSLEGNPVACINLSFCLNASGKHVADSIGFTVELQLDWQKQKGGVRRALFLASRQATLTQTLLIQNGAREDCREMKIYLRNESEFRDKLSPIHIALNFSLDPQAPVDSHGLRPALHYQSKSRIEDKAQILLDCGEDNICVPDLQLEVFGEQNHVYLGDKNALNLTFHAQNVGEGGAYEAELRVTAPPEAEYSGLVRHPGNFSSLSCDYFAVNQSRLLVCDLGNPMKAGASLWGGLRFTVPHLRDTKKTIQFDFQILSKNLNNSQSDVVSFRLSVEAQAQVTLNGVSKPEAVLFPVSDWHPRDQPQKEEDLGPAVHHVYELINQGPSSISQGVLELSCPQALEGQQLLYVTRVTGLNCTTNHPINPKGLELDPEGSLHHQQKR
T3 sequence (P08648 895-1049 partner limits assumed): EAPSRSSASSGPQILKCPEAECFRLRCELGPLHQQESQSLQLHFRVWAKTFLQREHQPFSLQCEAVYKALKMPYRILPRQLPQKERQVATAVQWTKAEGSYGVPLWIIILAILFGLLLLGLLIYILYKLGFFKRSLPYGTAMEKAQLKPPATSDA
T3 sequence (P05556 21-798): as the sequence (P05556 21-798) above
T1 sequence (P06756 31-889 limits assumed): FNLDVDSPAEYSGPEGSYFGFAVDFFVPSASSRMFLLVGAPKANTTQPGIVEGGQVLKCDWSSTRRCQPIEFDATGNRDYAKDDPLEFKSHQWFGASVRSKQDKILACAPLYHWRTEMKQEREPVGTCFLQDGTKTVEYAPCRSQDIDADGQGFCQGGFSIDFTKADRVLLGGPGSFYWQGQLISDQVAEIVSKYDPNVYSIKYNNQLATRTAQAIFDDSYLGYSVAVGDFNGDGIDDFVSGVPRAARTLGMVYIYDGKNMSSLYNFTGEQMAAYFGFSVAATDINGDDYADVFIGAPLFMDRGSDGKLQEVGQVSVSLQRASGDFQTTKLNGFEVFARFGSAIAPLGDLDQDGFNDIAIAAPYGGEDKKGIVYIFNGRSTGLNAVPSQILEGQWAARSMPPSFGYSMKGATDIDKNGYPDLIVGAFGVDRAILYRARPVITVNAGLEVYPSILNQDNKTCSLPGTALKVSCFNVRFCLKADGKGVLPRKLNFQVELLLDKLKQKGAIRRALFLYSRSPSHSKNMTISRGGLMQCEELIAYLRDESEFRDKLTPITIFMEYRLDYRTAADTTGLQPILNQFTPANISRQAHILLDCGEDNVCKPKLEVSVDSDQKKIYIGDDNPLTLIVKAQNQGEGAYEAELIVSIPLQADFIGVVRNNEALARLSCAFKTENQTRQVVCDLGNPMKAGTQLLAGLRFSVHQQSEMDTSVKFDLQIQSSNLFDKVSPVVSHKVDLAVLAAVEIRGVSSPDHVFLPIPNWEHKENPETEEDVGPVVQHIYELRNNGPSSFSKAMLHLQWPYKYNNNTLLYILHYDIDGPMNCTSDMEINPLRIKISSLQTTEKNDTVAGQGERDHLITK
T1 sequence (P06756 891-1048 partner limits assumed): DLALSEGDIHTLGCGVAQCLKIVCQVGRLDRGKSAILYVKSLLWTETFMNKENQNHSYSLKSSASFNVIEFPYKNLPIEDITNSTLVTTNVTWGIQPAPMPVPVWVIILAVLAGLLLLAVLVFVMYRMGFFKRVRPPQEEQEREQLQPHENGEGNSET
T1 sequence (P05106 27-788): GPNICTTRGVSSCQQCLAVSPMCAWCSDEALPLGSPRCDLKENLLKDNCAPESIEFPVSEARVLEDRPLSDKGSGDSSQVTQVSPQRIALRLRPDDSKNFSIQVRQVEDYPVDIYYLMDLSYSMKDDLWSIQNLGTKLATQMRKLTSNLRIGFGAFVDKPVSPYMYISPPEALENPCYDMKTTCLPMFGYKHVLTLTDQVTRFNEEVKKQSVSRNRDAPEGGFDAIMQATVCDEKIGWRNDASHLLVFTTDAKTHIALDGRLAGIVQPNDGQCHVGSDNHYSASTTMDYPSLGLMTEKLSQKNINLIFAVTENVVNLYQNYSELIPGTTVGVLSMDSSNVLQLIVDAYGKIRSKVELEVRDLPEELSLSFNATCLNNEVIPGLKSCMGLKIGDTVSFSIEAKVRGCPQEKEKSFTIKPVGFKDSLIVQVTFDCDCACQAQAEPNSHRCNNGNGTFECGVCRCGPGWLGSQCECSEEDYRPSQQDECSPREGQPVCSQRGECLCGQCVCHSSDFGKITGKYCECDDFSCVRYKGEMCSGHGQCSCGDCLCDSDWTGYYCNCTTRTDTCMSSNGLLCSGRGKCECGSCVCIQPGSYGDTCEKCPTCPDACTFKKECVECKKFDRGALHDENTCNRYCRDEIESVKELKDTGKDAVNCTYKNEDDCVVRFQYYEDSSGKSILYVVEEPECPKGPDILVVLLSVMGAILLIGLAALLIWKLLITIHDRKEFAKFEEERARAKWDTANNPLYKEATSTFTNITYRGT

With DCVTNIAE [pep331, reference compound] the “effect of peptide on adherent cells on plates containing ADAM 23” value [1] was “this effect was not observed”.

With “GST: glutathione S-transferase, control protein for the fusion protein [reference compound]” the “angiogenic response (cells in MATRIGEL plug sections)” value (endothelial cells; subcutaneous plug, harvested day 7) was “a significant number of cells was not observed” and the “cell adhesion to wells coated with the protein” value (“cell adhesion to wells coated” below) [2] was “did not support any significant cell adhesion”.

With fibronectin [reference compound] the “cell adhesion to wells coated” value [2] was “promoted cell adhesion”.

With “albumin: albumin used as control coating of wells [reference compound]” the “cell adhesion to wells coated” value [2] was “did not support any significant cell adhesion”.

AVNECDIT [pep330] was tested, and the “effect of peptide on adherent cells on plates containing ADAM 23” value [1] was “significant loss of adherent cells”.

B1: ADAM 23-GST: recombinant ADAM 23 disintegrin domain expressed as a GST fusion protein in E. coli, about 40 kDa (protein)
chain: KLFEPTECGNGYVEAGEECDCGFHVECYGLCCKKCSLSNGAHCSDGPCCNNTSCLFQPRGYECRDAVNECDITEYCTGDSGQCPPNLHKQD
modifications: left off: a dimerising Fc or GST
notes: recombinant ADAM 23 disintegrin domain expressed as a GST fusion protein in E. coli, about 40 kDa
For B1, the “dose dependence of angiogenic response” value (endothelial cells; 4, 20.5 or 61.5 μg/plug, day 7) was “dose-dependent”, the “cell types in plug sections (microscopic histologic analyses)” value (endothelial cells; day 7, hematoxylin-eosin) was “both endothelial and smooth muscle cells were present” and the “dose dependence of ADAM 23-promoted cell adhesiveness” value [2] was “dose-dependent”. For the same molecule, the “attachment of cells in the presence of divalent cations” value ([2]; Mn2+ and Mg2+) was “stimulated”, the “cell adhesion to wells coated” value [2] was “promoted cell adhesion” and the “ADAM 23-mediated adhesion” value (HT1080) was “no significant ADAM 23-mediated adhesion”. For the same molecule, the “bound αvβ3 integrin (αv and β3 bands) on protein-containing beads” value (αvβ3 integrin) was “detected”, the “interaction with purified integrin” value (α1β1) was “did not reveal any evidence of interaction” and the “interaction with purified integrin” value (α5β1) was “did not reveal any evidence of interaction”. For the same molecule, the “ADAM 23-mediated adhesion” value (T47D) was “no significant ADAM 23-mediated adhesion” and the “ADAM 23-mediated adhesion” value (HeLa) was “no significant ADAM 23-mediated adhesion”.
